For two molecules, inhibition of IGF-1- and IGF-2-mediated IGF-1R phosphorylation in MCF-7 cells, EC50 results are on record in patent CN101415728A.

This experiment concerns the target human IGF-1R expressed on cells (human). Briefly: cell-based or functional assay.

B1: M13-C06.G4.P.agly (antibody, part only; not given: constant regions, part only)
heavy, part: EVQLLESGGGLVQPGGSLRLSCAASGFTFSIYRMQWVRQAPGKGLEWVSGISPSGGTTWYADSVKGRFTISRDNSKNTLYLQMNSLRAEDTAVYYCARWSGGSGYAFDIWGQGTMVTVSS
light, part: DIQMTQSPLSLSASVGDRVTITCQASRDIRNYLNWYQQKPGKAPKLLIYDASSLQTGVPSRFGGSGSGTDFSFTIGSLQPEDIATYYCQQFDSLPHTFGQGTKLEIK
B1 came in with an inhibition of IGF-1- and IGF-2-mediated IGF-1R phosphorylation in MCF-7 cells, EC50 of less than 1 nM.

B2: M14-C03.G4.P.agly (antibody, part only; not given: constant regions, human IgG4, part only)
heavy, part: EVQLLESGGGLVQPGGSLRLSCAASGFTFSKYMMSWVRQAPGKGLEWVSYISPSGGLTWYADSVKGRFTISRDNSKNTLYLQMNSLRAEDTAVYYCARDGARGYGMDVWGQGTTVTVSS
light, part: DIQMTQSPATLSLSPGERATLSCRASQSVSSYLAWYQQKPGQAPRLLIYDASNRATGIPARFSGSGSGTDFTLTISSLEPEDFAVYYCQQRSNWPPEVTFGPGTKVDIK
As to B2, the inhibition of IGF-1- and IGF-2-mediated IGF-1R phosphorylation in MCF-7 cells, EC50 was less than 1 nM.
